{"source": "patent US9518084B2", "about": "“Epitope tag for affinity-based applications” (VIB VZW, priority 2010, dated 2016)", "key": {"[1]": {"target": "Peptide N-YEPEA-C (SEQ ID NO: 11), residues Y136-A140 of full-length α-synuclein (Homo sapiens, UniProt P37840)", "assay": "Isothermal titration calorimetry (ITC) of NbSyn2 binding to C-terminal peptide fragment of α-synuclein", "method": "Calorimetric measurements were recorded using a MCS-ITC calorimeter (MicroCal, LLC, Northampton, Mass., USA). […] Both proteins were dialyzed prior to measurements in exactly the same buffer containing 10 mM phosphate, 150 mM sodium chloride at a pH of 7.4. Each injection was performed every four minutes at the desired temperature. […] The thermodynamic analysis was performed using the Microcal analysis software (Origin 7.0) with a 1:1 binding model. The temperature dependence of ΔH, allowed the calculation of ΔCp through the relationship ΔCp=δΔH/δT. The contribution of protonation to the ΔH was evaluated using a 10 mM Tris-HCL buffer 100 mM NaCl at pH 7.4."}, "[2]": {"system": "EPEA (SEQ ID NO:1)-tagged Rev protein", "assay": "In vivo detection of EPEA-tagged Rev in transfected HeLa cells by confocal microscopy", "assay_type": "cell-based, HIV", "details": "nanobody fused to mKO1 or GFP, GYQDYEPEA and EPEA tags", "from_the_text": "In another set of experiments, we explored the use of the EPEA (SEQ ID NO:1) tag to detect/visualize the expression of recombinant proteins within a (living) eukaryotic cell. […] Cells that are double-transfected with Rev-[sequence] (SEQ ID NO:10) or Rev-[sequence]\nThe two different tags [sequence] (SEQ ID NO:2) and EPEA (SEQ ID NO:1) were C-terminal fused to Rev by PCR using Takara Ex Taq polymerase (TAKARA BIO INC).\nHeLa, human epithelial cells were maintained using standard procedures until confluent in DMEM medium with 10% fetal calf serum. For transfection of plasmid DNA in HeLa, cells were harvested by a Trypsin/EDTA treatment, counted and plated onto glass bottom microwell dishes (MatTek corporation). Transfections were preformed according to manufacturer's manual: the 4×10^5 cells were seeded in a 35 mm dish. […]\nTransfected HeLa cells were imaged with a laser scanning SP5 confocal microscope (Leica Microsystems) equipped with an AF 6000 microscope and an AOBS, using a HCX PL APO×63 (NA 1.2) water immersion objective magnification. GFP was monitored with the Ar laser using the 488-nm line for excitation, and emission was detected between 492 and 570 nm. mKusabira orange fluorescent protein (mKO) was imaged using the DPSS-561 nm laser for excitation, and emission was detected between 570 and 675 nm."}}}
{"substance": "NbSyn2: Nanobody that specifically binds to α-synuclein, 126 amino acids, SEQ ID NO:21", "values": [{"measurement": "Kd", "setting": "[1]; 293.1 K", "result": "240 ± 26", "unit": "nM"}, {"measurement": "Kd", "setting": "[1]; 298.1 K", "result": "190 ± 30", "unit": "nM"}, {"measurement": "Kd", "setting": "[1]; 303.1 K", "result": "460 ± 110", "unit": "nM"}, {"measurement": "Kd", "setting": "[1]; 310.1 K", "result": "850 ± 130", "unit": "nM"}, {"measurement": "Recognition of tagged Rev in double-transfected cells (colocalization in the nucleus)", "setting": "[2]", "result": "recognized in vivo"}]}
